Experimental findings from the Human Domainome abundance scans (Beltran et al. 2025) are described below.

To fix the notation:
B1: MEF2-activating motif and SAP domain-containing transcriptional regulator, residues 170 to 204; numbered along this chain, Q6ZN01 (parent)
chain: LKLEELTVSELRQQLRLRGLPVSGTKSMLLERMRG

± gives the uncertainty stated by the source.

The data set covers variants of B1. The experiment in a line: abundance fitness (aPCA) (normalised: wild type 0, dead -1); higher = more abundant; growth selection in yeast, the domain comes from the species named. Conditions: Homo sapiens.
With LKLEELTVSELRQQLRLRGLPVEGTKSMLLERMRG [S23E], the abundance fitness amounted to 0.025 ± 0.068.

As for LKLEELTVSELRQQLRLRGLPVVGTKSMLLERMRG [S23V], the abundance fitness is -0.16 ± 0.092.

Regarding LKLEELTVSELRQQLRLRGLPVMGTKSMLLERMRG [S23M], the abundance fitness is -0.222 ± 0.065.

In the case of LKLEELTVSELRQQLRLRGLPVLGTKSMLLERMRG [S23L], the abundance fitness is -0.349 ± 0.068.

As for LKLEELTVSELRQQLRLRGLPVRGTKSMLLERMRG [S23R], the abundance fitness is -0.384 ± 0.076.

Take LKLEELTVSELRQQLRLRGLPVDGTKSMLLERMRG [S23D]: the abundance fitness worked out at 0.233 ± 0.14.

Take LKLEELTVSELRQQLRLRGLPVWGTKSMLLERMRG [S23W]: the abundance fitness is -0.883 ± 0.37.

LKLEELTVSELRQQLRLRGLPVGGTKSMLLERMRG [S23G]: the abundance fitness was -0.007 ± 0.071.

As to LKLEELTVSELRQQLRLRGLPVNGTKSMLLERMRG [S23N], the abundance fitness was -0.02 ± 0.12.

In the case of LKLEELTVSELRQQLRLRGLPVYGTKSMLLERMRG [S23Y], the abundance fitness was -0.106 ± 0.14.

As for LKLEELTVSELRQQLRLRGLPVPGTKSMLLERMRG [S23P], the abundance fitness is -0.838 ± 0.096.

In the case of LKLEELTVSELRQQLRLRGLPVKGTKSMLLERMRG [S23K], the abundance fitness is -0.198 ± 0.075.

As for LKLEELTVSELRQQLRLRWLPVSGTKSMLLERMRG [G19W], the abundance fitness is -0.863 ± 0.092.

Regarding LKLEELTVSELRQQLRLRQLPVSGTKSMLLERMRG [G19Q], the abundance fitness is -0.402 ± 0.1.

As for LKLEELTVSELRQQLRLRRLPVSGTKSMLLERMRG [G19R], the abundance fitness is -0.337 ± 0.066.

With LKLEELTVSELRQQLRLRSLPVSGTKSMLLERMRG [G19S], the abundance fitness was -0.34 ± 0.065.

In the case of LKLEELTVSELRQQLRLRALPVSGTKSMLLERMRG [G19A], the abundance fitness is -0.746 ± 0.08.

As for LKLEELTVSELRQQLRLRILPVSGTKSMLLERMRG [G19I], the abundance fitness was -0.417 ± 0.19.

LKLEELTVSELRQQLRLRPLPVSGTKSMLLERMRG [G19P]: the abundance fitness is -0.558 ± 0.29.

Turning to LKLEELTVSELRQQLRLRELPVSGTKSMLLERMRG [G19E], the abundance fitness was -0.261 ± 0.072.

On to LKLEELTVSELRQQLRLRFLPVSGTKSMLLERMRG [G19F], for which the abundance fitness is -0.639 ± 0.14.

LKLEELTVSELRQQLRLRKLPVSGTKSMLLERMRG [G19K]: the abundance fitness is -0.227 ± 0.086.

For the variant LKLEELTVSELRQQLRLRVLPVSGTKSMLLERMRG [G19V], the abundance fitness was -1.02 ± 0.1.

With LKLEELTVSELRQQLRLRTLPVSGTKSMLLERMRG [G19T], the abundance fitness was -0.683 ± 0.11.

Turning to LKLEELTVSELRQQLRLRCLPVSGTKSMLLERMRG [G19C], the abundance fitness is -0.559 ± 0.092.

As for LKLEELTVSELRQQLRLRHLPVSGTKSMLLERMRG [G19H], the abundance fitness was -0.211 ± 0.16.

Consider LKLEELTVSELRQQLRLQGLPVSGTKSMLLERMRG [R18Q], for which the abundance fitness amounted to 0.03 ± 0.24.

In the case of LKLEELTVSELRQQLRLWGLPVSGTKSMLLERMRG [R18W], the abundance fitness is -0.147 ± 0.085.

As to LKLEELTVSELRQQLRLLGLPVSGTKSMLLERMRG [R18L], the abundance fitness stood at 0.074 ± 0.057.

Turning to LKLEELTVSELRQQLRLVGLPVSGTKSMLLERMRG [R18V], the abundance fitness is -0.128 ± 0.095.

In the case of LKLEELTVSELRQQLRLSGLPVSGTKSMLLERMRG [R18S], the abundance fitness was -0.206 ± 0.24.

As for LKLEELTVSELRQQLRLMGLPVSGTKSMLLERMRG [R18M], the abundance fitness was 0.126 ± 0.071.

LKLEELTVSELRQQLRLNGLPVSGTKSMLLERMRG [R18N]: the abundance fitness is -0.299 ± 0.32.

As to LKLEELTVSELRQQLRLPGLPVSGTKSMLLERMRG [R18P], the abundance fitness is -0.336 ± 0.39.

In the case of LKLEELTVSELRQQLRLTGLPVSGTKSMLLERMRG [R18T], the abundance fitness is -0.239 ± 0.12.

For LKLEELTVSELRQQLRLRGLPTSGTKSMLLERMRG [V22T], the abundance fitness was 0.152 ± 0.097.

With LKLEELTVSELRQQLRLRGLPISGTKSMLLERMRG [V22I], the abundance fitness is -0.262 ± 0.24.

Turning to LKLEELTVSELRQQLRLRGLPCSGTKSMLLERMRG [V22C], the abundance fitness was -0.255 ± 0.13.

For the variant LKLEELTVSELRQQLRLRGLPSSGTKSMLLERMRG [V22S], the abundance fitness is -0.168 ± 0.078.

With LKLEELTVSELRQQLRLRGLPNSGTKSMLLERMRG [V22N], the abundance fitness is -0.407 ± 0.17.

As to LKLEELTVSELRQQLRLRGLPDSGTKSMLLERMRG [V22D], the abundance fitness was -0.046 ± 0.096.

As for LKLEELTVSELRQQLRLRGLPESGTKSMLLERMRG [V22E], the abundance fitness came to 0.025 ± 0.17.

As to LKLEELTVSELRQQLRLRGLPRSGTKSMLLERMRG [V22R], the abundance fitness is -0.375 ± 0.087.

Turning to LKLEELTVSELRQQLRLRGLPQSGTKSMLLERMRG [V22Q], the abundance fitness is -0.108 ± 0.068.

Turning to LKLEELTVSELRQQLRLRGLPPSGTKSMLLERMRG [V22P], the abundance fitness is -0.701 ± 0.2.

In the case of LKLEELTVSELRQQLRLRGLPASGTKSMLLERMRG [V22A], the abundance fitness is 0.052 ± 0.1.

LKLEELTVSELRQQLRLRGLPLSGTKSMLLERMRG [V22L]: the abundance fitness is -0.209 ± 0.076.

Turning to LKLEELTVSELRQQLRLRGLPYSGTKSMLLERMRG [V22Y], the abundance fitness amounted to 0.298 ± 0.11.

LKLEELTVSELRQQLRLRGLPWSGTKSMLLERMRG [V22W]: the abundance fitness is -0.595 ± 0.12.

Turning to LKLEELTVSELRQQLRLRGLPVSGTKHMLLERMRG [S27H], the abundance fitness is -0.246 ± 0.091.

As to LKLEELTVSELRQQLRLRGLPVSGTKAMLLERMRG [S27A], the abundance fitness is -0.1 ± 0.064.

For the variant LKLEELTVSELRQQLRLRGLPVSGTKGMLLERMRG [S27G], the abundance fitness was -0.108 ± 0.066.

As for LKLEELTVSELRQQLRLRGLPVSGTKEMLLERMRG [S27E], the abundance fitness was found to be 0.081 ± 0.05.

Take LKLEELTVSELRQQLRLRGLPVSGTKTMLLERMRG [S27T]: the abundance fitness is -0.108 ± 0.078.

Turning to LKLEELTVSELRQQLRLRGLPVSGTKVMLLERMRG [S27V], the abundance fitness is -0.349 ± 0.084.

For LKLEELTVSELRQQLRLRGLPVSGTKRMLLERMRG [S27R], the abundance fitness is -0.154 ± 0.064.

With LKLEELTVSELRQQLRLRGLPVSGTKDMLLERMRG [S27D], the abundance fitness amounted to 0.069 ± 0.065.

As for LKLEELTVSELRQQLRLRGLPVSGTKWMLLERMRG [S27W], the abundance fitness is -0.23 ± 0.06.

LKLEELTVSELRQQLRLRGLPVSGTKQMLLERMRG [S27Q]: the abundance fitness was 0.38 ± 0.41.

For the variant LKLEELTVSELRQQLRLRGLPVSGTKYMLLERMRG [S27Y], the abundance fitness was -0.725 ± 0.35.

Turning to LKLEELTVSELRQQLRLRGLPVSGTKLMLLERMRG [S27L], the abundance fitness was -0.281 ± 0.063.

Turning to LKLEELTVSELRQQLRLRGLPVSGTKFMLLERMRG [S27F], the abundance fitness is -1.15 ± 0.27.

On to LKLEELTVSELRQQLRLRGLPVSGTKPMLLERMRG [S27P], for which the abundance fitness was -0.19 ± 0.12.

On to LKLEELTVSELRQQLRLRGLPVSGTKCMLLERMRG [S27C], for which the abundance fitness is -0.455 ± 0.12.

Take LKLEELTVSELRQQLRLRGLPVSGTKSHLLERMRG [M28H]: the abundance fitness was -0.003 ± 0.14.

On to LKLEELTVSELRQQLRLRGLPVSGTKSCLLERMRG [M28C], for which the abundance fitness was -0.393 ± 0.25.

With LKLEELTVSELRQQLRLRGLPVSGTKSGLLERMRG [M28G], the abundance fitness was -0.512 ± 0.072.

As for LKLEELTVSELRQQLRLRGLPVSGTKSILLERMRG [M28I], the abundance fitness was -0.015 ± 0.098.

Turning to LKLEELTVSELRQQLRLRGLPVSGTKSALLERMRG [M28A], the abundance fitness was determined as 0.022 ± 0.095.

Regarding LKLEELTVSELRQQLRLRGLPVSGTKSFLLERMRG [M28F], the abundance fitness was -0.616 ± 0.23.
